Tests used:
[1] = molecular target: T1, IL-1RAP recombinant protein (Homo sapiens, UniProt Q9NPH3); assay: ELISA against recombinant IL-1RAP protein; format: binding; conditions: BSA negative control
T1 construct: recombinant fusion protein consisting of the extra cellular part of IL-1RAP (NM_002182.2, NCBI) and the Fc-part of human IgG1; purchased R&D Systems
T1 sequence (Q9NPH3 21-367 limits assumed): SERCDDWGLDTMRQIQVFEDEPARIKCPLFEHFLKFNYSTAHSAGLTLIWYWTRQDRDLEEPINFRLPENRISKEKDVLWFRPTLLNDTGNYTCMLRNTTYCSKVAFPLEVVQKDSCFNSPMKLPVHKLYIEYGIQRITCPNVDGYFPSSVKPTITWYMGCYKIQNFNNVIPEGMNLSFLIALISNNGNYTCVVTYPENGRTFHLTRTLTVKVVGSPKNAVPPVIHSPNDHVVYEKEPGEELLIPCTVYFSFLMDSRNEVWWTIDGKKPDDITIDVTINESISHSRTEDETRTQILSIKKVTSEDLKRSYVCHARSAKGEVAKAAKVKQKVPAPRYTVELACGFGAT
Excerpt: FIG. 2: recognition of IL-1RAP recombinant protein with #E3C3 mAb by the ELISA technique (b). BSA is the negative control (a).
Anti-human Fc antibody was coated on a bottom of a plastic ELISA plate.

[2] = test system: IL-1RAP+ leukemia expressing stem cells CD34+CD38+ or CD34+CD38-; assay: Flow cytometry immunophenotyping of primary cells from CML patients; format: binding, human; conditions: bone marrow or peripheral blood of patient at diagnosis or after 12 months of Imatinib
Excerpt: FIG. 3: Immunophenotyping on peripheral blood (PM) or bone marrow (BM) of 2 CML positive patients at diagnosis (Diag) or after Imatinib (IM) treatment. IL-1RAP (#E3C3) was used in combination with CD34+ and CD38− fluorescent staining. Fluorochrome-conjugated isotype control mAbs from the different mAbs were systematically used.
Hematopoietic stem cells from CML patients were tracked using a panel of CD45, CD34, CD38, CD33, CD133, CD117 including murine Alexa Fluor® 488 labelled IL-1RAP antibody clone #E3C3. Transduced cells were stained using a panel of antibodies including CD3, CD4, CD8, and CD19 in order to differentiate helper or cytotoxic GMTC. Naïve, central or memory T cells subsets were analyzed using a panel of CD45RA, CD62L, CD95, CCR7 monoclonal antibodies. Cells were collected using a FACSCANTO™ II cytometer (BD Biosciences, Le Pont de Claix, France) and analyzed using the DIVA 6.1 software (BD Biosciences, Le Pont de Claix, France).
Immunophenotyping on peripheral blood or bone marrow of 2 CML-positive patients without or after Imatinib (TKI) treatment has been performed. IL-1RAP (#E3C3) was used in combination with CD34^+ and CD38^− fluorescent staining. Fluorochrome-conjugated isotype control monoclonal antibodies from the different monoclonal antibodies were systematically used.

B1: #E3C3: mouse anti-hIL-1RAP monoclonal antibody subclone generated by standard hybridoma technique; VH SEQ ID NO: 2, VL SEQ ID NO: 4 (antibody, V domains shown)
VH: MGWSCIILFLVATATGVNSQVQLQQPGAELMMPGASVKVSCEASGYTFTDSWMHWVKQRPGQGLEWIGAIDPSDSYTTYNQKFTGKATLSVDESSNTAYMQLSSLTSEDSAVYYCARYYSGSNYISPFPYWGQGTLVTVSA
VL: MESQIQVFVFVFLWLSGVDGDIVMTQSHKFMSTSVGDRVTITCKASLDVSTAVAWYQQKPGQSPKLLIYSASYRYTGVPDRFTGSGSGTDFTFTISSVQAEDLAVYYCQQHYSPPFTFGSGTNLEIK
modifications: Amino acid sequence of chain H (VH) of murine scFv anti-IL-1RAP; Amino acid sequence of chain K (VL) of murine scFv anti-IL-1RAP
For B1, the “recognition of IL-1RAP recombinant protein by ELISA” value [1] was “recognize the IL-1RAP recombinant protein” and the “discrimination of IL-1RAP+ stem cell subpopulations” value [2] was “allowed to discriminate IL-1RAP+ leukemia expressing stem cells”.
